Measured values published in the RNAGym collection of RNA variant scans (doi:10.1093/molbev/msab373).

B1: Azoarcus group I ribozyme (parent)
chain: GUGCCUUGCGCCGGGAAACCACGCAAGGGAUGGUGUCAAAUUCGGCGAAACCUAAGCGCCCGCCCGGGCGUAUGGCAACGCCGAGCCAAGCUUCGGCGCCUGCGCCGAUGAAGGUGUAGAGACUAGACGGCACCCACCUAAGGCAAACGCUAUGGUGAAGGCAUAGUCCAGGGAGUGGCGAAAGUCACACAAACCGG

Variants of: B1
Test: reverse-splicing fitness (ratio to wild type); higher = more active; in vitro selection; Mg2+ level not given
Method in brief: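 An in vitro group I ribozyme library with randomized positions was T7-transcribed and gel-purified. In triplicate, 10 pmol RNA in EPPS pH 7.5 was reacted with 50 pmoles of a 30-nt RNA substrate for 1 h at 37 °C across several added MgCl2 levels (1–48 mM), then stopped with EDTA. Products were reverse transcribed from a substrate-complementary primer, PCR-amplified and sequenced (HiSeq 4000). Fitness is a variant's read proportion after selection over that before, normalised to wild type.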
Work on A111C A120C A145U C150U C169A U176A yielded a reverse-splicing fitness of 0.012. In the case of A111C A120C A145U C150U C169A U176C, the reverse-splicing fitness is reported as 0.00838. A111C A120C A145U C150U C169A U176G showed a reverse-splicing fitness of 0.00715. With A111C A120C A145U C150U C169G the reverse-splicing fitness was 0.00917. Variant A111C A120C A145U C150U C169G U176A has a reverse-splicing fitness of 0.0128. Variant A111C A120C A145U C150U C169G U176C has a reverse-splicing fitness of 0.0132. A111C A120C A145U C150U C169G U176G showed a reverse-splicing fitness of 0.00667. A111C A120C A145U C150U C169U gave a reverse-splicing fitness of 0.125. A111C A120C A145U C150U C169U U176A showed a reverse-splicing fitness of 0.028. A111C A120C A145U C150U C169U U176C showed a reverse-splicing fitness of 0.0374. Variant A111C A120C A145U C150U C169U U176G has a reverse-splicing fitness of 0.00661. In the case of A111C A120C A145U C150U U176A, the reverse-splicing fitness is reported as 0.146. In the case of A111C A120C A145U C150U U176C, the reverse-splicing fitness is reported as 0.174. A111C A120C A145U C150U U176G showed a reverse-splicing fitness of 0.0336. For A111C A120C A145U C169A, the reverse-splicing fitness was 0.0119. Variant A111C A120C A145U C169A U176A has a reverse-splicing fitness of 0.0135. Variant A111C A120C A145U C169A U176C has a reverse-splicing fitness of 0.0102. In the case of A111C A120C A145U C169A U176G, the reverse-splicing fitness is reported as 0.00762. Variant A111C A120C A145U C169G has a reverse-splicing fitness of 0.00945. A111C A120C A145U C169G U176A gave a reverse-splicing fitness of 0.0103. A111C A120C A145U C169G U176C showed a reverse-splicing fitness of 0.0123. A111C A120C A145U C169G U176G gave a reverse-splicing fitness of 0.00445. In the case of A111C A120C A145U C169U, the reverse-splicing fitness is reported as 0.189. For A111C A120C A145U C169U U176A, the reverse-splicing fitness was 0.035. In the case of A111C A120C A145U C169U U176C, the reverse-splicing fitness is reported as 0.0445. With A111C A120C A145U C169U U176G the reverse-splicing fitness was 0.00761. With A111C A120C A145U U176A the reverse-splicing fitness was 0.222. In the case of A111C A120C A145U U176C, the reverse-splicing fitness is reported as 0.215. In the case of A111C A120C A145U U176G, the reverse-splicing fitness is reported as 0.0519. Work on A111C A120C C150A yielded a reverse-splicing fitness of 0.0821. A111C A120C C150A C169A showed a reverse-splicing fitness of 0.00999. In the case of A111C A120C C150A C169A U176A, the reverse-splicing fitness is reported as 0.0162. A111C A120C C150A C169A U176C showed a reverse-splicing fitness of 0.0141. With A111C A120C C150A C169A U176G the reverse-splicing fitness was 0.00693. With A111C A120C C150A C169G the reverse-splicing fitness was 0.00716. Work on A111C A120C C150A C169G U176A yielded a reverse-splicing fitness of 0.0198. With A111C A120C C150A C169G U176C the reverse-splicing fitness was 0.021. A111C A120C C150A C169G U176G gave a reverse-splicing fitness of 0.00744. A111C A120C C150A C169U showed a reverse-splicing fitness of 0.0222. With A111C A120C C150A C169U U176A the reverse-splicing fitness was 0.0208. For A111C A120C C150A C169U U176C, the reverse-splicing fitness was 0.0224. A111C A120C C150A C169U U176G gave a reverse-splicing fitness of 0.00635. A111C A120C C150A U176A gave a reverse-splicing fitness of 0.0343. Variant A111C A120C C150A U176C has a reverse-splicing fitness of 0.0495. Variant A111C A120C C150A U176G has a reverse-splicing fitness of 0.0118. With A111C A120C C150G the reverse-splicing fitness was 0.0496. Work on A111C A120C C150G C169A yielded a reverse-splicing fitness of 0.00914. A111C A120C C150G C169A U176A showed a reverse-splicing fitness of 0.00884. Work on A111C A120C C150G C169A U176C yielded a reverse-splicing fitness of 0.00966. With A111C A120C C150G C169A U176G the reverse-splicing fitness was 0.00561. Variant A111C A120C C150G C169G has a reverse-splicing fitness of 0.00757. A111C A120C C150G C169G U176A gave a reverse-splicing fitness of 0.00796. In the case of A111C A120C C150G C169G U176C, the reverse-splicing fitness is reported as 0.00683. In the case of A111C A120C C150G C169G U176G, the reverse-splicing fitness is reported as 0.00564. Work on A111C A120C C150G C169U yielded a reverse-splicing fitness of 0.02. Variant A111C A120C C150G C169U U176A has a reverse-splicing fitness of 0.00759. In the case of A111C A120C C150G C169U U176C, the reverse-splicing fitness is reported as 0.014. A111C A120C C150G C169U U176G gave a reverse-splicing fitness of 0.00523. For A111C A120C C150G U176A, the reverse-splicing fitness was 0.0144. For A111C A120C C150G U176C, the reverse-splicing fitness was 0.0288. A111C A120C C150G U176G showed a reverse-splicing fitness of 0.00388. With A111C A120C C150U the reverse-splicing fitness was 0.362. Work on A111C A120C C150U C169A yielded a reverse-splicing fitness of 0.0123. In the case of A111C A120C C150U C169A U176A, the reverse-splicing fitness is reported as 0.0172. A111C A120C C150U C169A U176C gave a reverse-splicing fitness of 0.0142. A111C A120C C150U C169A U176G gave a reverse-splicing fitness of 0.00561. A111C A120C C150U C169G showed a reverse-splicing fitness of 0.00843. In the case of A111C A120C C150U C169G U176A, the reverse-splicing fitness is reported as 0.0124. For A111C A120C C150U C169G U176C, the reverse-splicing fitness was 0.0164. A111C A120C C150U C169G U176G gave a reverse-splicing fitness of 0.00557. For A111C A120C C150U C169U, the reverse-splicing fitness was 0.113. Work on A111C A120C C150U C169U U176A yielded a reverse-splicing fitness of 0.0275. Variant A111C A120C C150U C169U U176C has a reverse-splicing fitness of 0.0327. A111C A120C C150U C169U U176G showed a reverse-splicing fitness of 0.0066. With A111C A120C C150U U176A the reverse-splicing fitness was 0.128. With A111C A120C C150U U176C the reverse-splicing fitness was 0.153. A111C A120C C150U U176G showed a reverse-splicing fitness of 0.0275. With A111C A120C C169A the reverse-splicing fitness was 0.0116. Variant A111C A120C C169A U176A has a reverse-splicing fitness of 0.0152. With A111C A120C C169A U176C the reverse-splicing fitness was 0.0161. A111C A120C C169A U176G showed a reverse-splicing fitness of 0.00631. In the case of A111C A120C C169G, the reverse-splicing fitness is reported as 0.00921. A111C A120C C169G U176A showed a reverse-splicing fitness of 0.0157.
